IntAct's records for PubMed 31515488

B1: Keratin, type II cytoskeletal 6A (Homo sapiens), P02538 (parent)
chain: MASTSTTIRSHSSSRRGFSANSARLPGVSRSGFSSVSVSRSRGSGGLGGACGGAGFGSRSLYGLGGSKRISIGGGSCAISGGYGSRAGGSYGFGGAGSGFGFGGGAGIGFGLGGGAGLAGGFGGPGFPVCPPGGIQEVTVNQSLLTPLNLQIDPTIQRVRAEEREQIKTLNNKFASFIDKVRFLEQQNKVLETKWTLLQEQGTKTVRQNLEPLFEQYINNLRRQLDSIVGERGRLDSELRGMQDLVEDFKNKYEDEINKRTAAENEFVTLKKDVDAAYMNKVELQAKADTLTDEINFLRALYDAELSQMQTHISDTSVVLSMDNNRNLDLDSIIAEVKAQYEEIAQRSRAEAESWYQTKYEELQVTAGRHGDDLRNTKQEIAEINRMIQRLRSEIDHVKKQCANLQAAIADAEQRGEMALKDAKNKLEGLEDALQKAKQDLARLLKEYQELMNVKLALDVEIATYRKLLEGEECRLNGEGVGQVNISVVQSTVSSGYGGASGVGSGLGLGGGSSYSYGSGLGVGGGFSSSSGRAIGGGLSSVGGGSSTIKYTTTSSSSRKSYKH
partner: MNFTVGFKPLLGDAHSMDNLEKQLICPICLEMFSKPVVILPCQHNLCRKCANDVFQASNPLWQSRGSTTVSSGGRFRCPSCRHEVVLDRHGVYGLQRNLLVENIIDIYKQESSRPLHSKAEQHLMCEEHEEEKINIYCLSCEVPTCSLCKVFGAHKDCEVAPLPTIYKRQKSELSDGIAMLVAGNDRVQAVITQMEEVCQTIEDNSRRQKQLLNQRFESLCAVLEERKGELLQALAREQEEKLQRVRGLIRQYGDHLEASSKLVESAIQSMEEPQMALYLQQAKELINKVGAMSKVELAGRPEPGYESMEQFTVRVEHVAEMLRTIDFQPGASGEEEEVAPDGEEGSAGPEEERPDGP
B2: Cyclic AMP-dependent transcription factor ATF-2 (Homo sapiens), P15336 (parent)
chain: MKFKLHVNSARQYKDLWNMSDDKPFLCTAPGCGQRFTNEDHLAVHKHKHEMTLKFGPARNDSVIVADQTPTPTRFLKNCEEVGLFNELASPFENEFKKASEDDIKKMPLDLSPLATPIIRSKIEEPSVVETTHQDSPLPHPESTTSDEKEVPLAQTAQPTSAIVRPASLQVPNVLLTSSDSSVIIQQAVPSPTSSTVITQAPSSNRPIVPVPGPFPLLLHLPNGQTMPVAIPASITSSNVHVPAAVPLVRPVTMVPSVPGIPGPSSPQPVQSEAKMRLKAALTQQHPPVTNGDTVKGHGSGLVRTQSEESRPQSLQQPATSTTETPASPAHTTPQTQSTSGRRRRAANEDPDEKRRKFLERNRAAASRCRQKRKVWVQSLEKKAEDLSSLNGQLQSEVTLLRNEVAQLKQLLLAHKDCPVTAMQKKSGYHTADKDDSSEDISVPSSPHTEAIQHSSVSTSNGVSSTSKAEAVATSVLTQMADQSTEPALSQIVMAPSSQSQPSGS
B3: Synaptotagmin-like protein 5 (Homo sapiens), Q8TDW5 (parent)
chain: MSKNSEFINLSFLLDHEKEMILGVLKRDEYLKKVEDKRIRKLKNELLEAKRRSGKTQQEASRVCVHCHRNLGLIFDRGDPCQACSLRVCRECRVAGPNGSWKCTVCDKIAQLRIITGEWFFEEKAKRFKQVNVLGTDVVRQSILRRSPGAEEVQSQEQTRQDAEKSDTSPVAGKKASHDGPKRKGFLLSKFRSATRGEIITPKTDTGRSYSLDLDGQHFRSLKSPPGSDRGSTGSSDLNDQEPGPRTPKSSRSNGVTPGTQSSPAPSTRTVTSVISREYGFENSMDLAAIEGTSQELTKSHRRNTSGTPSIAVSGTSLSSDQSRSELDLSESFTEDSEDTVSIRSKSVPGALDKDSLEETEESIDALVSSQLSTNTHRLASGLSTTSLNSMMSVYSETGDYGNVKVSGEILLHISYCYKTGGLYIFVKNCRNLAIGDEKKQRTDAYVKSYLLPDKSRNNKRKTKIRTGTNPEFNETLKYTISHTQLETRTLQLSVWHYDRFGRNSFLGEVEIPFDSWNFENPTDEWFVLQPKVEFAPDIGLQYKGELTVVLRYIPPEENLMLPPEQLQGNKTFKKGKKKESPVISGGILEVFIKEAKNLTAVKSGGTSDSFVKGYLLPDDSKATKHKTLVIKKSVNPQWNHTFMFSGIHPQDIKNVCLELTIWDKEAFSSNIFLGGVRLNSGSGVSHGKNVDWMDSQGEEQRLWQKMANNPGTPFEGVLMLRSSMGKCRL
partner: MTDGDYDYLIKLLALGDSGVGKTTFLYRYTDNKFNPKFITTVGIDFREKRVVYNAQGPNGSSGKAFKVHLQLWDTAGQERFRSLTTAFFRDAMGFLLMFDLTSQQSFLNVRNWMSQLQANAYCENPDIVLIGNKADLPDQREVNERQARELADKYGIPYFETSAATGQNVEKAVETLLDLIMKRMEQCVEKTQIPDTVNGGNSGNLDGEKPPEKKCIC
B4: Microtubule-associated tumor suppressor candidate 2 (Homo sapiens), Q5JR59-3 (parent)
chain: MGHCCCKPYNCLQCLDKTNESALVKEKELSIELANIRDEVAFHTAKCEKLQKEKEELERRFEDEVKRLGWQQQAELQELEERLQLQFEAEMARLQEEHGDQLLSIRCQHQEQVEDLTASHDAALLEMENNHTVAITILQDDHDHKVQELMSTHELEKKELEENFEKLRLSLQDQVDTLTFQSQSLRDRARRFEEALRKNTEEQLEIALAPYQHLEEDMKSLKQVLEMKNQQIHEQEKKILELEKLAEKNIILEEKIQVLQQQNEDLKARIDQNTVVTRQLSEENANLQEYVEKETQEKKRLSRTNEELLWKLQTGDPTSPIKLSPTSPVYRGSSSGPSSPARVSTTPR
partner: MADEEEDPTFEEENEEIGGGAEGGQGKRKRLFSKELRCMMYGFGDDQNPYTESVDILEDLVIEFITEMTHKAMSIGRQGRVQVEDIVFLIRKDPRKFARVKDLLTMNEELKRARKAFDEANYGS
B5: Septin-2 (Homo sapiens), Q15019 (parent)
chain: MSKQQPTQFINPETPGYVGFANLPNQVHRKSVKKGFEFTLMVVGESGLGKSTLINSLFLTDLYPERVIPGAAEKIERTVQIEASTVEIEERGVKLRLTVVDTPGYGDAINCRDCFKTIISYIDEQFERYLHDESGLNRRHIIDNRVHCCFYFISPFGHGLKPLDVAFMKAIHNKVNIVPVIAKADTLTLKERERLKKRILDEIEEHNIKIYHLPDAESDEDEDFKEQTRLLKASIPFSVVGSNQLIEAKGKKVRGRLYPWGVVEVENPEHNDFLKLRTMLITHMQDLQEVTQDLHYENFRSERLKRGGRKVENEDMNKDQILLEKEAELRRMQEMIARMQAQMQMQMQGGDGDGGALGHHV
partner: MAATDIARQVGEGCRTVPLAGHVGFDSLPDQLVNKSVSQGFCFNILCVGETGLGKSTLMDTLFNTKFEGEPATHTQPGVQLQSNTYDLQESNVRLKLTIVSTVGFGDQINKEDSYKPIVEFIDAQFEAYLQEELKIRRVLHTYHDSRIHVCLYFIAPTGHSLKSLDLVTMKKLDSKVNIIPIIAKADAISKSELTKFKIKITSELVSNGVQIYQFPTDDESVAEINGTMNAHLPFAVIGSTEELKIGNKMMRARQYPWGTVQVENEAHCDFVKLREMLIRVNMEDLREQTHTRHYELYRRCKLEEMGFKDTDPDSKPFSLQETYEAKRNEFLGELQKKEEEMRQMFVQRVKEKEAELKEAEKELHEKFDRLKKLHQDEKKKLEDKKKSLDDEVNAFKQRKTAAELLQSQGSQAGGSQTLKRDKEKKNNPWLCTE
B6: Notch homolog 2 N-terminal-like protein A (Homo sapiens), Q7Z3S9 (parent)
chain: MCVTYHNGTGYCKCPEGFLGEYCQHRDPCEKNRCQNGGTCVAQAMLGKATCRCASGFTGEDCQYSTSHPCFVSRPCLNGGTCHMLSRDTYECTCQVGFTGKECQWTDACLSHPCANGSTCTTVANQFSCKCLTGFTGQKCETDVNECDIPGHCQHGGTCLNLPGSYQCQCLQGFTGQYCDSLYVPCAPSPCVNGGTCRQTGDFTFECNCLPETVRRGTELWERDREVWNGKEHDEN
partner: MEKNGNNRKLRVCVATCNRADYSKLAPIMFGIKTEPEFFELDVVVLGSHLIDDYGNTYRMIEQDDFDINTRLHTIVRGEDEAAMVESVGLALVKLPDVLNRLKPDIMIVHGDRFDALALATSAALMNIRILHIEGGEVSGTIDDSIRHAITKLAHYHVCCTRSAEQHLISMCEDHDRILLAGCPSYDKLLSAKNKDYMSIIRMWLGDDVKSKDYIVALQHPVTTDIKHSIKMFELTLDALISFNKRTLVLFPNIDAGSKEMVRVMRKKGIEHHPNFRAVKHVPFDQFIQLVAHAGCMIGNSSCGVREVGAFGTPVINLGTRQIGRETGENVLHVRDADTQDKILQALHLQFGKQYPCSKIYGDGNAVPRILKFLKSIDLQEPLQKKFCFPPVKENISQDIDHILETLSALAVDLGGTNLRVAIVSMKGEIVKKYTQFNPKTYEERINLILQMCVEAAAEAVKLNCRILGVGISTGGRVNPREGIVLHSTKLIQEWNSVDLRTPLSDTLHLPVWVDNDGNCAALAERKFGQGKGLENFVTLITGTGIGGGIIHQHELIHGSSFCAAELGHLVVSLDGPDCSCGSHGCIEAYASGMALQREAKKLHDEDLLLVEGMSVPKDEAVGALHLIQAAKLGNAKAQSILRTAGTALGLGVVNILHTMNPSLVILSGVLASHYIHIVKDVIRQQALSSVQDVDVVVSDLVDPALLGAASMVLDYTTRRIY
B7: Break repair meiotic recombinase recruitment factor 1 (Homo sapiens), Q0VDD7 (parent)
chain: MTKRKKLRTSGEGLCPPKPLKNPRLGDFYGDPQSSMLGCLHHPEEPEGKLGPVPSTQQHGEEPGKAVSSSPDEETGSPCRLLRQPEKEPAPLPPSQNSFGRFVPQFAKSRKTVTRKEEMKDEDRGSGAFSLETIAESSAQSPGCQLLVETLGVPLQEATELGDPTQADSARPEQSSQSPVQAVPGSGDSQPDDPPDRGTGLSASQRASQDHLSEQGADDSKPETDRVPGDGGQKEHLPSIDSEGEKPDRGAPQEGGAQRTAGAGLPGGPQEEGDGVPCTPASAPTSGPAPGLGPASWCLEPGSVAQGSPDPQQTPSRMGREGEGTHSSLGCSSLGMVVIADLSTDPTELEERALEVAGPDGQASAISPASPRRKAADGGHRRALPGCTSLTGETTGESGEAGQDGKPPGDVLVGPTASLALAPGSGESMMGAGDSGHASPDTGPCVNQKQEPGPAQEEAELGGQNLERDLEGFRVSPQASVVLEHREIADDPLQEPGAQQGIPDTTSELAGQRDHLPHSADQGTWADSLAVELDFLLDSQIQDALDASDFEAPPEQLFPSGNKPGPCWPGPSSHANGDPVAVAKAQPRTFVGIQASEASRMEDATNVVRGLIVELSNLNRLIMGTHRDLEAFKRLNYRKTKLGGKAPLPYPSKGPGNIPRGDPPWREL
partner: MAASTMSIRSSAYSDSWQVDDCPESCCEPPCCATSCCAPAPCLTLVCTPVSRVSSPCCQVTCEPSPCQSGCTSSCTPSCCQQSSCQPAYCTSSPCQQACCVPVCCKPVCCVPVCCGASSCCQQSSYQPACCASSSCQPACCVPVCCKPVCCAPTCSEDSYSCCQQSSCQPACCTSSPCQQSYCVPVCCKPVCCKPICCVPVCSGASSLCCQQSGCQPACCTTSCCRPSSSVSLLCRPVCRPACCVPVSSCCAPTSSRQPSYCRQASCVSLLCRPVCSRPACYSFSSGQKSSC

Variants of: B1
Conditions: with tri54_human TRIM54, Q9BYV2
R559G was tested, and the “effect of a mutation on the interaction” value was “with no effect”.
For A335T, the “effect of a mutation on the interaction” value was “with no effect”.
T552S was tested, and the “effect of a mutation on the interaction” value was “with no effect”.
For L210M, the “effect of a mutation on the interaction” value was “with no effect”.

Variants of: B2
Conditions: with jun_human JUN
With S456L the “effect of a mutation on the interaction” value was “with no effect”.

Variants of: B3
Conditions: with rb27b_human RAB27B
R160H was tested, and the “effect of a mutation on the interaction” value was “with no effect”.

Variants of: B4
Conditions: with taf13_human TAF13, Q15543
A89V was tested, and the “effect of a mutation on the interaction” value was “with no effect”.

Variants of: B5
Conditions: with sept6_human SEPTIN6, Q14141
In the case of H270D, the “effect of a mutation on the interaction” value is reported as “with no effect”.

Variants of: B6
Conditions: with glcne_human GNE
For R74Q, the “effect of a mutation on the interaction” value was “with no effect”.
In the case of A115T, the “effect of a mutation on the interaction” value is reported as “with no effect”.

Variants of: B7
Conditions: with kr109_human KRTAP10-9, P60411
In the case of G267R, the “effect of a mutation on the interaction” value is reported as “with no effect”.
